The source of these data is publication PMC7616425, “Transient Structural Properties of the Rho GDP-Dissociation Inhibitor” (Angewandte Chemie (International ed. in English), 2024).

T1: Alexa647-labeled RhoGDI1 (wt) (bovine, UniProt P19803 1-204, Alexa647 acceptor (site not stated))
T1 construct: also called wildtype GDI; wt RhoGDI
T1 sequence (looked up): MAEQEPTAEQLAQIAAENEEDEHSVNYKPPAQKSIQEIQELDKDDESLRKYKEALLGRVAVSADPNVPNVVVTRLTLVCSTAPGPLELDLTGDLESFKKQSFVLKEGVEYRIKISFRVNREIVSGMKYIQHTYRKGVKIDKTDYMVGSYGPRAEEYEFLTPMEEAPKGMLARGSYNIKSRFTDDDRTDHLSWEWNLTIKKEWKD

B1: full-length RhoGDI1 (residues 1 to 204), bovine (natural protein, UniProt P19803 1-204, looked up)
chain: T1 sequence (looked up)
modifications: triply labeled (2H, 13C, 15N) in the NMR samples
B2: Cy3-labeled, prenylated Cdc42 (natural protein)
chain: not shown
modifications: prenylated (residue not stated); Cy3 donor (site not stated)
notes: Cdc42, Rho family small GTPase
B3: Alexa647-labeled RhoGDI1 L56G (natural protein, bovine, UniProt P19803 1-204, looked up)
chain: T1 sequence (looked up) with L56G
modifications: Alexa647 acceptor (site not stated)

The target in assay [1] is Cdc42, homogeneously geranylgeranylated in vitro (UniProt P60953 1-191, geranylgeranylated in vitro (residue not stated)). Put plainly: cell-based or functional assay.
Chain of Cdc42, homogeneously geranylgeranylated in vitro (P60953 whole entry): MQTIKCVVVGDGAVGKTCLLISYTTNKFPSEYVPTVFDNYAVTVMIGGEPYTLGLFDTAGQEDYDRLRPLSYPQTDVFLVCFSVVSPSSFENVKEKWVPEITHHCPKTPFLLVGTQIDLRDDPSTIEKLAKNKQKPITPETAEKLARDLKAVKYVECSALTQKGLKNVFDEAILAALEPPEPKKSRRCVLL
Assay [2] deals with T1, Alexa647-labeled RhoGDI1 (wt). Put plainly: not stated; association rate constant determined independently for wildtype GDI (Figure S17). The following applies: both partners purified.
Assay [3] shares this target. Nature of the assay: FRET or BRET; dissociation assay: 80 nM dual-labeled complex (Alexa647 on RhoGDI1, Cy3 on Cdc42) mixed with excess (5 μM) unlabeled GDI; mono-exponential fits; KD calculated from the measured dissociation rate constant and the association rate constant measured for wt (assumed for the mutants). The following applies: both partners purified.
In assay [4] the target is B3. The description is as above. To be noted: both partners purified.

Changes are numbered by the printed parent chain.

In the case of B1, in assay [1], the “inhibition of EDTA-induced Mant-GDP dissociation from prenylated Cdc42 with saturating (5 μM) RhoGDI, against free Cdc42” value is 83 fold.
Regarding B2, the kon in assay [2] stood at 5e+06 M⁻¹ s⁻¹. For the same molecule, in assay [3], the equilibrium dissociation constant (Kd) is 0.09 nM and the koff is 0.0004 s⁻¹. Besides, in assay [4], the Kd was 4 nM and the koff was 0.2 s⁻¹.
As for B3, the “acceleration of Mant-GDP dissociation from prenylated Cdc42 with 5 μM RhoGDI L56G, against wt RhoGDI” value in assay [1] came out at 5 fold.
